The test deals with Light chain of BDD-Factor VIII (FVIII: C light chain) expressed in Pichia pastoris GS115 (Homo sapiens (Human)) (UniProt P00451). Nature of the test: cell-based or functional assay.
Chain of Light chain of BDD-Factor VIII (FVIII: C light chain) expressed in Pichia pastoris GS115 (Homo sapiens (Human)) (P00451 other isoform, or with tags, fused parts or gaps limits assumed): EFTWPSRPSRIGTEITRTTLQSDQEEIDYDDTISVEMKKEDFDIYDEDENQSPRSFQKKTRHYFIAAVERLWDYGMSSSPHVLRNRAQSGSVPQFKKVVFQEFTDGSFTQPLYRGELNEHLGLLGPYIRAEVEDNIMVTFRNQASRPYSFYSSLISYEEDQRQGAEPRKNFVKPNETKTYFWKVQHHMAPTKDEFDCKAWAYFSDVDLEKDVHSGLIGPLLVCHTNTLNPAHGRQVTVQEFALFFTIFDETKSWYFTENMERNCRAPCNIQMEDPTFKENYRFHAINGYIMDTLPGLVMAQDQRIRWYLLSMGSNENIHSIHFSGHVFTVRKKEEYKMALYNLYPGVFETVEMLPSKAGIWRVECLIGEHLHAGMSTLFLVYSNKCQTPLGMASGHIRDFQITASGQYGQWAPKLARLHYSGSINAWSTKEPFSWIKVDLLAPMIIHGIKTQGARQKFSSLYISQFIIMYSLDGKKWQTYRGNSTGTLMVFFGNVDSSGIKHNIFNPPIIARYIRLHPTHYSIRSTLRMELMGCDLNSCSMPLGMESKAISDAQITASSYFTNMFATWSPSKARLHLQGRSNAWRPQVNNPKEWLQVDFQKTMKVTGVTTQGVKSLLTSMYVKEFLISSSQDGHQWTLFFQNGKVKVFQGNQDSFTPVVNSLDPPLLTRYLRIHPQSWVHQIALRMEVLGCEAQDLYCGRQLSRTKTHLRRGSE

“Heavy chain of BDD-Factor VIII (FVIII: C heavy chain, A1 and A2 domains) expressed in Pichia pastoris GS115 (from UniProt P00451 20-759)”: the Specific Activity[IU/mg], chromogenic assay is 7660 IU/mg and the Specific Activity[IU/mg], one stage clotting assay was 132 IU/mg.

Source of the values: patent publication US20150225472A1.
